Source: the supplement of paper PMC11316812
± gives the standard deviation of the averaged measurements.

What was measured:
hTERT-HMEC = assay: percentage of EdU-negative (G0-arrested) nuclei per well, 72 h; higher = more G0 arrest; details: reference: sequence is the full UniProt precursor, the tested protein was the secreted form or ectodomain
MCF7 = assay: as above; details: reference: sequence is the full UniProt precursor, the tested protein was the secreted form or ectodomain
[1] = protein concentration 0.0270475 µM
[2] = protein concentration 0.270475 µM
[3] = protein concentration 0.0171429 µM
[4] = protein concentration 0.171429 µM
[5] = protein concentration 0.0225 µM
[6] = protein concentration 0.0357143 µM
[7] = protein concentration 0.357143 µM
[8] = protein concentration 0.02525 µM
[9] = protein concentration 0.2525 µM
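Also: secreted proteins added to cultured cells, EdU pulse at the end, nuclei found by Hoechst imaging, EdU status from nuclear versus surrounding ring intensity ratio, PBS as neutral control.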

Sequence	percentage of EdU-negative (hTERT-HMEC; [5]) [%]	percentage of EdU-negative (hTERT-HMEC; protein concentration 0.225 µM) [%]	percentage of EdU-negative (MCF7; [5]) [%]	percentage of EdU-negative (MCF7; protein concentration 0.225 µM) [%]	also measured
MAQTSSYFMLISCLMFLSQSQGQEAQTELPQARISCPEGTNAYRSYCYYFNEDRETWVDADLYCQNMNSGNLVSVLTQAEGAFVASLIKESGTDDFNVWIGLHDPKKNRRWHWSSGSLVSYKSWGIGAPSSVNPGYCVSLTSSTGFQKWKDVPCEDKFSFVCKFKN	–	–	–	–	percentage of EdU-negative (hTERT-HMEC; [1]): 6.23 ± 0.99%; percentage of EdU-negative (hTERT-HMEC; [2]): 6.73 ± 0.84%; percentage of EdU-negative (MCF7; [1]): 25 ± 1.8%; percentage of EdU-negative (MCF7; [2]): 23.9 ± 0.49%
MTSHYVIAIFALMSSCLATAGPEPGALCELSPVSASHPVQALMESFTVLSGCASRGTTGLPQEVHVLNLRTAGQGPGQLQREVTLHLNPISSVHIHHKSVVFLLNSPHPLVWHLKTERLATGVSRLFLVSEGSVVQFSSANFSLTAETEERNFPHGNEHLLNWARKEYGAVTSFTELKIARNIYIKVGEDQVFPPKCNIGKNFLSLNYLAEYLQPKAAEGCVMSSQPQNEEVHIIELITPNSNPYSAFQVDITIDIRPSQEDLEVVKNLILILKCKKSVNWVIKSFDVKGSLKIIAPNSIGFGKESERSMTMTKSIRDDIPSTQGNLVKWALDNGYSPITSYTMAPVANRFHLRLENNAEEMGDEEVHTIPPELRILLDPGALPALQNPPIRGGEGQNGGLPFPFPDISRRVWNEEGEDGLPRPKDPVIPSIQLFPGLREPEEVQGSVDIALSVKCDNEKMIVAVEKDSFQASGYSGMDVTLLDPTCKAKMNGTHFVLESPLNGCGTRPRWSALDGVVYYNSIVIQVPALGDSSGWPDGYEDLESGDNGFPGDMDEGDASLFTRPEIVVFNCSLQQVRNPSSFQEQPHGNITFNMELYNTDLFLVPSQGVFSVPENGHVYVEVSVTKAEQELGFAIQTCFISPYSNPDRMSHYTIIENICPKDESVKFYSPKRVHFPIPQADMDKKRFSFVFKPVFNTSLLFLQCELTLCTKMEKHPQKLPKCVPPDEACTSLDASIIWAMMQNKKTFTKPLAVIHHEAESKEKGPSMKEPNPISPPIFHGLDTLTVMGIAFAAFVIGALLTGALWYIYSHTGETAGRQQVPTSPPASENSSAAHSIGSTQSTPCSSSSTA	–	–	–	–	percentage of EdU-negative (hTERT-HMEC; [3]): 4.94 ± 0.63%; percentage of EdU-negative (hTERT-HMEC; [4]): 5.484 ± 0.021%; percentage of EdU-negative (MCF7; [3]): 24.6 ± 1.9%; percentage of EdU-negative (MCF7; [4]): 23.7 ± 2.4%
MKLMVLVFTIGLTLLLGVQAMPANRLSCYRKILKDHNCHNLPEGVADLTQIDVNVQDHFWDGKGCEMICYCNFSELLCCPKDVFFGPKISFVIPCNNQ	5.85 ± 0.5	6.71 ± 0.2	25.5 ± 2.2	25.5 ± 3.6	–
MLVRRGARAGPRMPRGWTALCLLSLLPSGFMSLDNNGTATPELPTQGTFSNVSTNVSYQETTTPSTLGSTSLHPVSQHGNEATTNITETTVKFTSTSVITSVYGNTNSSVQSQTSVISTVFTTPANVSTPETTLKPSLSPGNVSDLSTTSTSLATSPTKPYTSSSPILSDIKAEIKCSGIREVKLTQGICLEQNKTSSCAEFKKDRGEGLARVLCGEEQADADAGAQVCSLLLAQSEVRPQCLLLVLANRTEISSKLQLMKKHQSDLKKLGILDFTEQDVASHQSYSQKTLIALVTSGALLAVLGITGYFLMNRRSWSPTGERLGEDPYYTENGGGQGYSSGPGTSPEAQGKASVNRGAQENGTGQATSRNGHSARQHVVADTEL	5.14 ± 0.39	5.89 ± 0.59	26.6 ± 1.4	27.23 ± 0.19	–
MARGGRGRRLGLALGLLLALVLAPRVLRAKPTVRKERVVRPDSELGERPPEDNQSFQYDHEAFLGKEDSKTFDQLTPDESKERLGKIVDRIDNDGDGFVTTEELKTWIKRVQKRYIFDNVAKVWKDYDRDKDDKISWEEYKQATYGYYLGNPAEFHDSSDHHTFKKMLPRDERRFKAADLNGDLTATREEFTAFLHPEEFEHMKEIVVLETLEDIDKNGDGFVDQDEYIADMFSHEENGPEPDWVLSEREQFNEFRDLNKDGKLDKDEIRHWILPQDYDHAQAEARHLVYESDKNKDEKLTKEEILENWNMFVGSQATNYGEDLTKNHDEL	4.56 ± 0.49	6.14 ± 0.11	22.7 ± 0.8	25.5 ± 0.44	–
MLGIWTLLPLVLTSVARLSSKSVNAQVTDINSKGLELRKTVTTVETQNLEGLHHDGQFCHKPCPPGERKARDCTVNGDEPDCVPCQEGKEYTDKAHFSSKCRRCRLCDEGHGLEVEINCTRTQNTKCRCKPNFFCNSTVCEHCDPCTKCEHGIIKECTLTSNTKCKEEGSRSNLGWLCLLLLPIPLIVWVKRKEVQKTCRKHRKENQGSHESPTLNPETVAINLSDVDLSKYITTIAGVMTLSQVKGFVRKNGVNEAKIDEIKNDNVQDTAEQKVQLLRNWHQLHGKKEAYDTLIKDLKKANLCTLAEKIQTIILKDITSDSENSNFRNEIQSLV	–	–	–	–	percentage of EdU-negative (hTERT-HMEC; [6]): 5.07 ± 0.45%; percentage of EdU-negative (hTERT-HMEC; [7]): 5.88 ± 1.1%; percentage of EdU-negative (MCF7; [6]): 23.4 ± 1.9%; percentage of EdU-negative (MCF7; [7]): 26.6 ± 0.71%
MPAGRAARTCALLALCLLGAGAQDFGPTRFICTSVPVDADMCAASVAAGGAEELRSSVLQLRETVLQQKETILSQKETIRELTAKLGRCESQSTLDPGAGEARAGGGRKQPGSGKNTMGDLSRTPAAETLSQLGQTLQSLKTRLENLEQYSRLNSSSQTNSLKDLLQSKIDELERQVLSRVNTLEEGKGGPRNDTEERVKIETALTSLHQRISELEKGQKDNRPGDKFQLTFPLRTNYMYAKVKKSLPEMYAFTVCMWLKSSATPGVGTPFSYAVPGQANELVLIEWGNNPMEILINDKVAKLPFVINDGKWHHICVTWTTRDGVWEAYQDGTQGGSGENLAPYHPIKPQGVLVLGQEQDTLGGGFDATQAFVGELAHFNIWDRKLTPGEVYNLATCSTKALSGNVIAWAESHIEIYGGATKWTFEACRQIN	–	–	–	–	percentage of EdU-negative (hTERT-HMEC; [8]): 5.12 ± 0.18%; percentage of EdU-negative (hTERT-HMEC; [9]): 4.43 ± 0.47%; percentage of EdU-negative (MCF7; [8]): 26.9 ± 2.1%; percentage of EdU-negative (MCF7; [9]): 24.2 ± 4.3%
MVAGSDAGRALGVLSVVCLLHCFGFISCFSQQIYGVVYGNVTFHVPSNVPLKEVLWKKQKDKVAELENSEFRAFSSFKNRVYLDTVSGSLTIYNLTSSDEDEYEMESPNITDTMKFFLYVLESLPSPTLTCALTNGSIEVQCMIPEHYNSHRGLIMYSWDCPMEQCKRNSTSIYFKMENDLPQKIQCTLSNPLFNTTSSIILTTCIPSSGHSRHRYALIPIPLAVITTCIVLYMNGILKCDRKPDRTNSN	5.39 ± 0.14	5.59 ± 0.33	27.3 ± 0.7	26.7 ± 1.6	–
